The target in the experiment is XPO1 (human) (human) (UniProt O14980). Put plainly: other fluorescence titration; competition differential bleaching: MBP-NES competes with the probe FITC-NESPKI for XPO1, in the presence of excess RanGTP (GSP1 179ter, Q71L); analysed in PALMIST.
Chain of UniProt O14980 (O14980 whole entry): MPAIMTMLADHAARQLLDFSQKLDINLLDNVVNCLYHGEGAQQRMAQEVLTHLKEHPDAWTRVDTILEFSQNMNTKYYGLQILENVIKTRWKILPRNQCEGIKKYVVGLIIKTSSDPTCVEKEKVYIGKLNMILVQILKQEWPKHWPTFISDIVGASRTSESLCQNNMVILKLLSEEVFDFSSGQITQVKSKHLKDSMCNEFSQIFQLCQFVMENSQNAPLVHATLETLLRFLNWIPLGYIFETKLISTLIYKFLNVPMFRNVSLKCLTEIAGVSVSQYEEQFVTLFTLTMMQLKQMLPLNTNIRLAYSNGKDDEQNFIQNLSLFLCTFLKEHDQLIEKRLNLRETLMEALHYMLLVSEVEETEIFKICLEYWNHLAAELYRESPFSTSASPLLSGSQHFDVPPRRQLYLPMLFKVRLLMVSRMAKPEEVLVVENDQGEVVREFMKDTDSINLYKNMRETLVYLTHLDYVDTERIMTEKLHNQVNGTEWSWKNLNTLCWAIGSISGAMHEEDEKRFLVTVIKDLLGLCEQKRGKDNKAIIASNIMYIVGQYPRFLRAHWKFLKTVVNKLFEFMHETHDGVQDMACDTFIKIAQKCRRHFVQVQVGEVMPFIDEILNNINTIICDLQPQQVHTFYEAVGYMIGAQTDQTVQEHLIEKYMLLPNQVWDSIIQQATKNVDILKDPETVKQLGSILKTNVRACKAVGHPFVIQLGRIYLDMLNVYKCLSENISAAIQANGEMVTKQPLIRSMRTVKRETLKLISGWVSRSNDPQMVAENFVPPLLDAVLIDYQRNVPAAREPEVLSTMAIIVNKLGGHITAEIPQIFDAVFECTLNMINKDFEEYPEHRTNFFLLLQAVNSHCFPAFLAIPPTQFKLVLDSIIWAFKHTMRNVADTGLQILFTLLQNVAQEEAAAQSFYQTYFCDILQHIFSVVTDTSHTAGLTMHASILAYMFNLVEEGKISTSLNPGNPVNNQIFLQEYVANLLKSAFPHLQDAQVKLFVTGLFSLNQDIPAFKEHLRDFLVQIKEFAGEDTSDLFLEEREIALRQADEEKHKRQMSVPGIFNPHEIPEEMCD

As usually defined, the Kd is the concentration at which binding is half-saturated. Turning to “MBP-NESTDP (maltose binding protein fused to the putative NES peptide of TDP-43, residues 236-253)”, the equilibrium dissociation constant (Kd) amounted to 13 µM.

The values above are taken from article PMC5935693.
